This test concerns the target hR.Luc-connector-DhaA.H272F-Flag fusion protein with covalently bound biotin-C18H32O4-Cl substrate (Rhodococcus rhodochrous) (UniProt P0A3G2). The test can be described thus: capture on SA-coated 96-well plate through tethered biotin; captured luciferase activity measured.

Bounds are passed on as bounds.

“streptavidin (SA) coated on a solid support (from UniProt P22629 37-163)” showed an efficiency of capturing (% of Renilla luciferase activity added to the plate) greater than 50%.

Values taken from patent US20040214258A1.
